Test results from paper PMC9868005, “Structural and functional characterization of TraI from pKM101 reveals basis for DNA processing”.

Assays:
[1] = molecular target: T1, TraI trans-esterase domain (TraI-TE) (Escherichia coli? (plasmid pKM101), UniProt D9Z5Q2 1-299); assay: EMSA; interaction only seen above 800 nM; EMSA: 50 nM FITC-DNA, 0-1600 nM protein, 25 mM Hepes-NaOH pH 7.0, 300 mM NaCl, room temperature 15 min; 5% PAGE, 0.75x TBE, 4 C; conditions: protein: recombinant; tags: 10xHis with 3C site, cleaved off; label: 5' FITC
T1 sequence: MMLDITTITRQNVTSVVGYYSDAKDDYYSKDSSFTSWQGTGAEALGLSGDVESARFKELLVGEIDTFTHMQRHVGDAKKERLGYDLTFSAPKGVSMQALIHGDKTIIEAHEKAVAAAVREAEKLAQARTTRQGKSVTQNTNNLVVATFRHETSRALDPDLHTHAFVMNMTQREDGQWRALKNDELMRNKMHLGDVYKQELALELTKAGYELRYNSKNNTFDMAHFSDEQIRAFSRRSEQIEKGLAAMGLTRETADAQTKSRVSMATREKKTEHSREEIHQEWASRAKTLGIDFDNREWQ

[2] = molecular target: T1, TraI trans-esterase domain (TraI-TE); assay: EMSA; over half bound at 200 nM; EMSA: 50 nM FITC-DNA, 0-1600 nM protein, 25 mM Hepes-NaOH pH 7.0, 300 mM NaCl, room temperature 15 min; 5% PAGE, 0.75x TBE, 4 C; conditions: protein: recombinant; tags: 10xHis with 3C site, cleaved off; label: 5' FITC; hairpin
TraI full-length = molecular target: T2, TraI full-length (Escherichia coli? (plasmid pKM101), UniProt D9Z5Q2 3-1079); assay: EMSA; complete shift at 200 nM and above; high shift from 50 nM; EMSA: 50 nM FITC-DNA, 0-1600 nM protein, 25 mM Hepes-NaOH pH 7.0, 300 mM NaCl, room temperature 15 min; 5% PAGE, 0.75x TBE, 4 C; conditions: protein: recombinant; tags: 10xHis with 3C site, cleaved off; label: 5' FITC; hairpin
T2 sequence: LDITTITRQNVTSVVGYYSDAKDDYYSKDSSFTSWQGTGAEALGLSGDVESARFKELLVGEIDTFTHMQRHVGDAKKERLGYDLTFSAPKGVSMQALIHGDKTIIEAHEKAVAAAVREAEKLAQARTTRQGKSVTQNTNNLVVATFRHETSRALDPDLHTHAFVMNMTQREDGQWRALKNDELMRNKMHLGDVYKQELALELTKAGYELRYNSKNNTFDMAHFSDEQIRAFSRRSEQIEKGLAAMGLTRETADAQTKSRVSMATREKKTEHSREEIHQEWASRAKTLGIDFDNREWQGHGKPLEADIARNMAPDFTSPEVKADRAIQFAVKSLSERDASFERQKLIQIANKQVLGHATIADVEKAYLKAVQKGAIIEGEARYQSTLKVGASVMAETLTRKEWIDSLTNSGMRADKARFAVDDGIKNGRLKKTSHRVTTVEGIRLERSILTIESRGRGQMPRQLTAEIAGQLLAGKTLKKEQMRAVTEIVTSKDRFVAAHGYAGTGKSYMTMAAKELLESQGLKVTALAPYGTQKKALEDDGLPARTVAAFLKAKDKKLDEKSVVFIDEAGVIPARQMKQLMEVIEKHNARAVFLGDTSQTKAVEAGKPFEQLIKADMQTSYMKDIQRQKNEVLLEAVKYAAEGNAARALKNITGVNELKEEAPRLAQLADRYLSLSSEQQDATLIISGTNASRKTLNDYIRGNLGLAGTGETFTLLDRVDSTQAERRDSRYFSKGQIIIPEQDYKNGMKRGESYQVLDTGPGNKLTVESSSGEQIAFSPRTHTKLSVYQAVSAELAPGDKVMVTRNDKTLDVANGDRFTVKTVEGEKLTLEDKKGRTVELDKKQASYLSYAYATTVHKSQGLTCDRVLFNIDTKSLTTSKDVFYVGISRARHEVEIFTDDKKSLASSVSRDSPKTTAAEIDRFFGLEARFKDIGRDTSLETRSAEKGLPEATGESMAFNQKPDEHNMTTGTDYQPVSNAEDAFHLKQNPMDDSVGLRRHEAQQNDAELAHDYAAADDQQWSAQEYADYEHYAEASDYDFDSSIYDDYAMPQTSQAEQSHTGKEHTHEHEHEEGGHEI

[3] = molecular target: T1, TraI trans-esterase domain (TraI-TE); assay: X-ray crystallography 2.1 A; divalent cation modeled as Mn2+ (identity uncertain); 10 of 11 bases modeled; EMSA: 50 nM FITC-DNA, 0-1600 nM protein, 25 mM Hepes-NaOH pH 7.0, 300 mM NaCl, room temperature 15 min; 5% PAGE, 0.75x TBE, 4 C; conditions: protein: recombinant; tags: 10xHis with 3C site, cleaved off; U-turn in complex
[4] = molecular target: T1, TraI trans-esterase domain (TraI-TE); assay: EMSA; apparent Kd, half-shift point; EMSA: 50 nM FITC-DNA, 0-1600 nM protein, 25 mM Hepes-NaOH pH 7.0, 300 mM NaCl, room temperature 15 min; 5% PAGE, 0.75x TBE, 4 C; conditions: protein: recombinant; tags: 10xHis with 3C site, cleaved off; label: 5' FITC; hairpin

B1: F-Random57 (ssDNA)
DNA: TCCGCCATGCAGACGAGACCAGTCGGAGATTACCGAGCATTCTATCAGGTCGGCGAC
In the case of B1, the “apparent K (half saturation)” value [1] is reported as over 800 nM.

B2: F-oriT35 (structured_DNA)
DNA: TGTGATAGCGTGATTTATCGCGCTGCGTTAGGTGT
With B2 the “apparent K (half saturation)” value [2] was under 200 nM and the “apparent K (half saturation)” value (TraI full-length) was under 200 nM.

B3: oriT11 (ssDNA)
DNA: GCGTTAGGTGT
B3: binds [3].

B4: F-oriT57 (structured_DNA)
DNA: TGTGATAGCGTGATTTATCGCGCTGCGTTAGGTGTATAGCAGGTTAAGGGATAAAAA
For B4, the Kd [4] was under 200 nM and the “apparent K (half saturation)” value (TraI full-length) was under 200 nM.
